The numbers were not newly measured in paper PMC2783296, which cites them from elsewhere.

The data set addresses Glu134 (UniProt position 134, VVLAIERYVVV). The data set can be described thus: IR. The settings on record: Photoactivated metarhodopsin II (all-trans retinal, unprotonated Schiff base).

As for “Rhodopsin (metarhodopsin II photointermediate) (Bos taurus (inferred; species not stated in the article))”, the pKa is recorded as 6.3.
